Values belong to the sequence of their own block, whether it stands above or below them.
Key:
AncSZ = assay: phosphorylation enrichment, bacterial display (enrichment ratio); higher = better substrate or ligand; peptides without Tyr show the background
EPHB1 = EPHB1 (UniProt P54762); assay: as above
EPHB2 = EPHB2 (UniProt P29323); assay: as above
FGFR1 = FGFR1 (UniProt P11362); assay: as above
FGFR3 = FGFR3 (UniProt P22607); assay: as above
Fer (mouse) = assay: as above
Fes = Fes (UniProt P07332); assay: as above
Fyn = Fyn (UniProt P06241); assay: as above
Hck = Hck (UniProt P08631); assay: as above
Jak2 = Jak2 (UniProt O60674); assay: as above
MERTK = MERTK (UniProt Q12866); assay: as above
c-Abl (mouse) = assay: as above
c-Src = assay: as above
Grb2 SH2 = Grb2 SH2 (UniProt P62993); assay: SH2 binding enrichment of the phosphorylated peptide, bacterial display (enrichment ratio); higher = better substrate or ligand; peptides without Tyr show the background
SHP2-C SH2 = assay: as above
c-Src SH2 = assay: as above
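Wherever SH2 binding enrichment of the phosphorylated peptide, bacterial display is given: peptide library displayed on the E. coli surface as eCPX fusions, selected cells deep-sequenced, score is each peptide's frequency after selection divided by its frequency in the input.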
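Wherever phosphorylation enrichment, bacterial display is given: 11-residue human phosphosite peptides and single-mutation variants displayed on the E. coli surface, counted by deep sequencing, each peptide's frequency after selection divided by its frequency in the unselected input library; frequency after pTyr selection over input frequency; kinase dosed for 20-30% of maximal phosphorylation in three min.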

Sequence of Jak2 (O60674 whole entry, looked up): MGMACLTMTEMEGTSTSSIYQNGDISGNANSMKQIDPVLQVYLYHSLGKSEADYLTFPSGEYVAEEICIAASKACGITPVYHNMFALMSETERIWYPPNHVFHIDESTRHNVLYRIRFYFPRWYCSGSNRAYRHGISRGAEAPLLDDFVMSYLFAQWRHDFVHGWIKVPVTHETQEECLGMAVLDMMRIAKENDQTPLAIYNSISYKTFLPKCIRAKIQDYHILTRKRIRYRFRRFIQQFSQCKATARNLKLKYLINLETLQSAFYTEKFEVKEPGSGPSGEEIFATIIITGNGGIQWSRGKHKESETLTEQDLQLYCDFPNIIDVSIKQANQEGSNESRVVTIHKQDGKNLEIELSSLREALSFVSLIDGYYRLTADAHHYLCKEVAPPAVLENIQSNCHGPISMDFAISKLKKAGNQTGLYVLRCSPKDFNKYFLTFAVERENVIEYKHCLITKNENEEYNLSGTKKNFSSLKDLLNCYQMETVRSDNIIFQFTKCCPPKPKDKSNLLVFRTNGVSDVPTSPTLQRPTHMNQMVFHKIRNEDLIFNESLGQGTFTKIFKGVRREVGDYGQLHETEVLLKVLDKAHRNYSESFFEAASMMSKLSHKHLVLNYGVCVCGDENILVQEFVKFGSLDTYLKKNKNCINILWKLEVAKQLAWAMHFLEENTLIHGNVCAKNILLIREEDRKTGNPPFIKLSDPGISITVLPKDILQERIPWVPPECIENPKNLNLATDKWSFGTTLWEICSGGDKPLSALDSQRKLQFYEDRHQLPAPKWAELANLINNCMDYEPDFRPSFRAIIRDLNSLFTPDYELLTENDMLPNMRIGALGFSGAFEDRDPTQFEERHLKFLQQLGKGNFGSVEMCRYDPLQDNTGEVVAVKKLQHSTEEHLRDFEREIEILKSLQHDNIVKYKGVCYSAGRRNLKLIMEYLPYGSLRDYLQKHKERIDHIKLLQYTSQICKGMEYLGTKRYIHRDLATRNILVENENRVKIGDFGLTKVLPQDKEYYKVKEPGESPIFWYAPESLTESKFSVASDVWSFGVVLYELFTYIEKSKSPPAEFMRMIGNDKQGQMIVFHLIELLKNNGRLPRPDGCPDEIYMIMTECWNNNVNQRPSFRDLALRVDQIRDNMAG
Sequence of FGFR3 (P22607 whole entry, looked up): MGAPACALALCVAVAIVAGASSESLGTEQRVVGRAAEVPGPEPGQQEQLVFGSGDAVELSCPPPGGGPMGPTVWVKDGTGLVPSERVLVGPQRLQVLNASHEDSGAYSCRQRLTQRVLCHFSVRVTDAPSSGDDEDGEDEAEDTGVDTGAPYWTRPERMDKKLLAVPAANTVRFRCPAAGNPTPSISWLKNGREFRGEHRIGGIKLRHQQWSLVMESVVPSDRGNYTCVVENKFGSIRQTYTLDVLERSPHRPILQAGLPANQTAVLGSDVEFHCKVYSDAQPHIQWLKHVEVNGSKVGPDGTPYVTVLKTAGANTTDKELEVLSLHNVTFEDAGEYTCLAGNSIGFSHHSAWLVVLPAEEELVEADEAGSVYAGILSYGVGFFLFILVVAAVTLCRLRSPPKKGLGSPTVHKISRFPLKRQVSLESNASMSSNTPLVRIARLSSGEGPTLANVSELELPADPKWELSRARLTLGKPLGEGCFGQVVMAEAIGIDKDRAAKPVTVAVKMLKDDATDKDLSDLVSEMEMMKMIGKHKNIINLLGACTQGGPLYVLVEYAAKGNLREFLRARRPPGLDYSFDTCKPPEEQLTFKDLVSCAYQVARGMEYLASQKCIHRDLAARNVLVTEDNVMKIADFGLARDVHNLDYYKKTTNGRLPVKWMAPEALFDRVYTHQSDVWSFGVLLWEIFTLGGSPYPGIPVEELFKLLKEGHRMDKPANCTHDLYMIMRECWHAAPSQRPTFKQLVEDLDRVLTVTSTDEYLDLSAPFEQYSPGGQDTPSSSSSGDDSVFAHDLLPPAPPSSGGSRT
Sequence of Fyn (P06241 whole entry, looked up): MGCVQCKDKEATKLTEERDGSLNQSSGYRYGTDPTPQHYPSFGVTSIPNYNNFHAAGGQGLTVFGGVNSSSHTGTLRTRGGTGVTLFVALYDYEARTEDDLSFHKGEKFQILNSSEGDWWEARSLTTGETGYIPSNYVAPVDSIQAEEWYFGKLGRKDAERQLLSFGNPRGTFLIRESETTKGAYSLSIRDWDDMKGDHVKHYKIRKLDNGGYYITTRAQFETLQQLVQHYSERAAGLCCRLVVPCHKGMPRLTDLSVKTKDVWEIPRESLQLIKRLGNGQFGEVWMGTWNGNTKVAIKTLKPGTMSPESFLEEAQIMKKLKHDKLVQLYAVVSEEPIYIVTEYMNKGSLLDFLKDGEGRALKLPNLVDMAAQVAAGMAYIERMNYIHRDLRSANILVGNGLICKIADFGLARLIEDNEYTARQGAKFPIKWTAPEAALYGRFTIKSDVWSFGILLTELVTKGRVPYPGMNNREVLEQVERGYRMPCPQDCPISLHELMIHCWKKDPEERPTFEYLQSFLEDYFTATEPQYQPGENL
Sequence of EPHB1 (P54762 whole entry, looked up): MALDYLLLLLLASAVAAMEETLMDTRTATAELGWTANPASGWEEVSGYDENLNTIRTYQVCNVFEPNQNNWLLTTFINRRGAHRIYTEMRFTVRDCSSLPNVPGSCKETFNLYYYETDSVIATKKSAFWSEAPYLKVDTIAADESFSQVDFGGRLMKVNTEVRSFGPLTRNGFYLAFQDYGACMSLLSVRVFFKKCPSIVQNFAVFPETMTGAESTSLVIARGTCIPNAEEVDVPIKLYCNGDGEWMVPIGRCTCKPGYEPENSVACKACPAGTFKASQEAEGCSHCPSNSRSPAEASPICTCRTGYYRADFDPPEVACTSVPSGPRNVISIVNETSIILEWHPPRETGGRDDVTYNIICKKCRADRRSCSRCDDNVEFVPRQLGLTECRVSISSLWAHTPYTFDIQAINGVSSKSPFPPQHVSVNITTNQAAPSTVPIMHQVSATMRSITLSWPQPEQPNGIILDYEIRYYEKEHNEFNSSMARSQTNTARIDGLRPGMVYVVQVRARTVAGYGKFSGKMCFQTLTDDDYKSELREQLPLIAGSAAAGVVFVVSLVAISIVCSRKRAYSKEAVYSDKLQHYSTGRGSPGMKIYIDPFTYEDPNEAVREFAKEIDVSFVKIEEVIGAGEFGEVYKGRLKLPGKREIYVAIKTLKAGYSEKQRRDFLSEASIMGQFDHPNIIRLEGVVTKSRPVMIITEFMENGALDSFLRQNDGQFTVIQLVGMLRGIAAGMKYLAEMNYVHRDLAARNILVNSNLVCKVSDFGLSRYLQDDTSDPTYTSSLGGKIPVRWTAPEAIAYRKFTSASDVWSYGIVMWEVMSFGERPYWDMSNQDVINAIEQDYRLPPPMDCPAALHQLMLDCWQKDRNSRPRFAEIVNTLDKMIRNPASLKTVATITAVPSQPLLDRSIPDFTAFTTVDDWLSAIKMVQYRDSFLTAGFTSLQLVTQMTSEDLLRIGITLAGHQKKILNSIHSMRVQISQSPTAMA
Sequence of Hck (P08631 whole entry, looked up): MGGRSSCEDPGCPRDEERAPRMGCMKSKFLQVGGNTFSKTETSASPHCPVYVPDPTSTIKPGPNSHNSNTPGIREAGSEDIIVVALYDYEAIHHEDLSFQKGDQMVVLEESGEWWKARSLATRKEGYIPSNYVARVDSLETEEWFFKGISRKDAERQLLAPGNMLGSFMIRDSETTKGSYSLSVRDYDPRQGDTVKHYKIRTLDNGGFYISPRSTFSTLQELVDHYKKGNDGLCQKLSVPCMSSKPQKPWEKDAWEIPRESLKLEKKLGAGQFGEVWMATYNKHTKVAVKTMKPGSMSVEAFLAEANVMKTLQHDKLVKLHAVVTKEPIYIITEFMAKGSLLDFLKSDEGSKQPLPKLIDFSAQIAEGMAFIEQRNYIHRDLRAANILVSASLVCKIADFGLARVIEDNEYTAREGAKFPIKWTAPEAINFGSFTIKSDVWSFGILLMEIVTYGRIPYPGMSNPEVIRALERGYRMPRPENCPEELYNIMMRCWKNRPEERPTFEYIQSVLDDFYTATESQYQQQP
Sequence of Fes (P07332 whole entry, looked up): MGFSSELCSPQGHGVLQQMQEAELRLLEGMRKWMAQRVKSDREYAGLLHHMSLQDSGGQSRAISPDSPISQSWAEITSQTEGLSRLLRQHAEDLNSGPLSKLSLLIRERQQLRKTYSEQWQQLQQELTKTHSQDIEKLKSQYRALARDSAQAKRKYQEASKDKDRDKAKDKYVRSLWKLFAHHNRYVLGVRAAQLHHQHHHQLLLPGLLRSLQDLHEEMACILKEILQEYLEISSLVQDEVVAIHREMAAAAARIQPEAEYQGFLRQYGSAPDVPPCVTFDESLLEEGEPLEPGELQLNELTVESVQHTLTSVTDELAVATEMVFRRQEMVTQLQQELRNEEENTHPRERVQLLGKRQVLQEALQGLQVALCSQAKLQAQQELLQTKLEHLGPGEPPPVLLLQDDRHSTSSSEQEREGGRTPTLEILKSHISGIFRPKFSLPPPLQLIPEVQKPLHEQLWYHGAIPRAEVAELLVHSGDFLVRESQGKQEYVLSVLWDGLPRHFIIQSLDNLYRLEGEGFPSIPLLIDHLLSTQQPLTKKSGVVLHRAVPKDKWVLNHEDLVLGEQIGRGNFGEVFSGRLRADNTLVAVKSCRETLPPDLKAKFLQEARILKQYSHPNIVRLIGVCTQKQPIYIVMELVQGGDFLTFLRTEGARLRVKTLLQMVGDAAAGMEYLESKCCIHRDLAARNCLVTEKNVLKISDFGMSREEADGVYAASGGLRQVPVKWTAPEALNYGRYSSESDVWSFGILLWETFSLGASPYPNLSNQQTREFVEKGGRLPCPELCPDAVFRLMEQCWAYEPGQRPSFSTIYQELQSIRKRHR

Sequence: EIIPFYGMSTF [FNDC3B_Y175_YF]
phosphorylation enrichment (AncSZ): 0.955 | phosphorylation enrichment (EPHB1): 0.532 | phosphorylation enrichment (EPHB2): 0.667 | phosphorylation enrichment (FGFR1): 0.461 | phosphorylation enrichment (FGFR3): 0.524 | phosphorylation enrichment (Fer (mouse)): 0.897 | phosphorylation enrichment (Fes): 0.911 | phosphorylation enrichment (Fyn): 0.687 | phosphorylation enrichment (Hck): 0.844 | phosphorylation enrichment (Jak2): 0.879 | phosphorylation enrichment (MERTK): 0.901 | phosphorylation enrichment (c-Abl (mouse)): 0.97 | phosphorylation enrichment (c-Src): 0.782 | SH2 binding enrichment (Grb2 SH2): 0.731 | SH2 binding enrichment (SHP2-C SH2): 0.575 | SH2 binding enrichment (c-Src SH2): 3.09

Sequence: FQQLFYLLQTN [IQGAP2_Y890_YF]
phosphorylation enrichment (AncSZ): 1.51 | phosphorylation enrichment (EPHB1): 0.884 | phosphorylation enrichment (EPHB2): 0.796 | phosphorylation enrichment (FGFR1): 0.514 | phosphorylation enrichment (FGFR3): 1.26 | phosphorylation enrichment (Fer (mouse)): 0.561 | phosphorylation enrichment (Fes): 1.5 | phosphorylation enrichment (Fyn): 0.608 | phosphorylation enrichment (Hck): 0.688 | phosphorylation enrichment (Jak2): 1.34 | phosphorylation enrichment (MERTK): 0.867 | phosphorylation enrichment (c-Abl (mouse)): 0.897 | phosphorylation enrichment (c-Src): 0.779 | SH2 binding enrichment (Grb2 SH2): 1.2 | SH2 binding enrichment (SHP2-C SH2): 1.47 | SH2 binding enrichment (c-Src SH2): 0.892

Sequence: NVADHYGVYKP [ATP6V0D2_Y271]
phosphorylation enrichment (AncSZ): 0.571 | phosphorylation enrichment (EPHB1): 0.401 | phosphorylation enrichment (EPHB2): 0.391 | phosphorylation enrichment (FGFR1): 0.461 | phosphorylation enrichment (FGFR3): 0.451 | phosphorylation enrichment (Fer (mouse)): 0.424 | phosphorylation enrichment (Fes): 0.645 | phosphorylation enrichment (Fyn): 5.55 | phosphorylation enrichment (Hck): 3.71 | phosphorylation enrichment (Jak2): 0.517 | phosphorylation enrichment (MERTK): 0.356 | phosphorylation enrichment (c-Abl (mouse)): 0.587 | phosphorylation enrichment (c-Src): 4.89 | SH2 binding enrichment (Grb2 SH2): 0.917 | SH2 binding enrichment (SHP2-C SH2): 0.647 | SH2 binding enrichment (c-Src SH2): 0.597

Sequence: NRDNTYNPVSE [FGA_Y127_R129P]
phosphorylation enrichment (AncSZ): 0.751 | phosphorylation enrichment (EPHB1): 0.544 | phosphorylation enrichment (EPHB2): 0.465 | phosphorylation enrichment (FGFR1): 0.457 | phosphorylation enrichment (FGFR3): 0.627 | phosphorylation enrichment (Fer (mouse)): 0.481 | phosphorylation enrichment (Fes): 0.857 | phosphorylation enrichment (Fyn): 0.562 | phosphorylation enrichment (Hck): 0.658 | phosphorylation enrichment (Jak2): 0.699 | phosphorylation enrichment (MERTK): 0.486 | phosphorylation enrichment (c-Abl (mouse)): 0.545 | phosphorylation enrichment (c-Src): 0.522 | SH2 binding enrichment (Grb2 SH2): 0.694 | SH2 binding enrichment (SHP2-C SH2): 0.443 | SH2 binding enrichment (c-Src SH2): 0.425

More lines, main results first:

SH2 binding enrichment (Grb2 SH2): 0.935 | SH2 binding enrichment (SHP2-C SH2): 0.748 | SH2 binding enrichment (c-Src SH2): 0.608
Sequence: GGCQEYTGAPY [NAXD_Y85]
phosphorylation enrichment (AncSZ): 1.35 | phosphorylation enrichment (EPHB1): 0.636 | phosphorylation enrichment (EPHB2): 0.587 | phosphorylation enrichment (FGFR1): 0.627 | phosphorylation enrichment (FGFR3): 0.843 | phosphorylation enrichment (Fer (mouse)): 0.524 | phosphorylation enrichment (Fes): 1.06 | phosphorylation enrichment (Fyn): 0.525 | phosphorylation enrichment (Hck): 0.577 | phosphorylation enrichment (Jak2): 0.83 | phosphorylation enrichment (MERTK): 0.409 | phosphorylation enrichment (c-Abl (mouse)): 0.699 | phosphorylation enrichment (c-Src): 0.52

SH2 binding enrichment (Grb2 SH2): 0.947 | SH2 binding enrichment (SHP2-C SH2): 0.956 | SH2 binding enrichment (c-Src SH2): 0.688
Sequence: GKLIFYDLRGE [KARS1_Y145]
phosphorylation enrichment (AncSZ): 1.02 | phosphorylation enrichment (EPHB1): 0.492 | phosphorylation enrichment (EPHB2): 0.637 | phosphorylation enrichment (FGFR1): 0.517 | phosphorylation enrichment (FGFR3): 0.584 | phosphorylation enrichment (Fer (mouse)): 0.432 | phosphorylation enrichment (Fes): 0.984 | phosphorylation enrichment (Fyn): 0.474 | phosphorylation enrichment (Hck): 0.531 | phosphorylation enrichment (Jak2): 0.823 | phosphorylation enrichment (MERTK): 0.436 | phosphorylation enrichment (c-Abl (mouse)): 0.664 | phosphorylation enrichment (c-Src): 0.413

SH2 binding enrichment (Grb2 SH2): 0.896 | SH2 binding enrichment (SHP2-C SH2): 0.495 | SH2 binding enrichment (c-Src SH2): 0.43
Sequence: KVGNEYITKGQ [MYH7_Y410_V411I]
phosphorylation enrichment (AncSZ): 0.593 | phosphorylation enrichment (EPHB1): 0.358 | phosphorylation enrichment (EPHB2): 0.414 | phosphorylation enrichment (FGFR1): 0.444 | phosphorylation enrichment (FGFR3): 0.443 | phosphorylation enrichment (Fer (mouse)): 0.315 | phosphorylation enrichment (Fes): 0.682 | phosphorylation enrichment (Fyn): 0.376 | phosphorylation enrichment (Hck): 0.399 | phosphorylation enrichment (Jak2): 0.561 | phosphorylation enrichment (MERTK): 0.356 | phosphorylation enrichment (c-Abl (mouse)): 0.564 | phosphorylation enrichment (c-Src): 0.403

SH2 binding enrichment (Grb2 SH2): 0.746 | SH2 binding enrichment (SHP2-C SH2): 0.801 | SH2 binding enrichment (c-Src SH2): 0.653
Sequence: LSGVIYVILGK [PMP22_Y153_R157G]
phosphorylation enrichment (AncSZ): 1.73 | phosphorylation enrichment (EPHB1): 0.93 | phosphorylation enrichment (EPHB2): 0.588 | phosphorylation enrichment (FGFR1): 0.867 | phosphorylation enrichment (FGFR3): 0.977 | phosphorylation enrichment (Fer (mouse)): 0.754 | phosphorylation enrichment (Fes): 2.88 | phosphorylation enrichment (Fyn): 0.828 | phosphorylation enrichment (Hck): 0.885 | phosphorylation enrichment (Jak2): 2.72 | phosphorylation enrichment (MERTK): 0.771 | phosphorylation enrichment (c-Abl (mouse)): 1.87 | phosphorylation enrichment (c-Src): 0.796
